From US8093046B2, “CVN-12p1: a recombinant allosteric lectin antagonist of HIV-1 envelope gp120 interactions” (Philadelphia Health and Education Corporation d/b/c Drexel …, priority 2006, dated 2012)

B1: CVN: 11 kDa protein originally isolated from the cyanobacterium Nostoc ellipsosporum, binds high mannose oligosaccharides of gp120 (protein)
chain: LGKFSQTCYNSAIQGSVLTSTCERTNGGYNTSSIDLNSVIENVDGSLKWQPSNFIETCRNTQLAGSSELAAECKTRAQQFVSTKINLDDHIANIDGTLKYEHHHHHH

Experiments:
HIV-1 BaL [1] = test: Viral synergy study, HIV-1 BaL replication in PM-1 cells (gp120 ELISA); format: cell-based; conditions: 12p1 16-31 μM
Experimental: The curves are also shown for the dose response expected if the effects were simply additive.
Viral replication was determined by gp120 ELISA after a seven day incubation.
Dilutions and cells were in RPMI supplemented with 10% fetal calf serum, pen, strep and glutamine. Cells were incubated for 7 days and viral replication determined by gp120 ELISA. Each condition was performed in sextuplet and the mean used to calculate IC50 values. Analysis of combined effects was also carried out using the median effect principle developed by Chou and Talalay^39,40, and using the computer program CalcuSyn (BioSoft).

[2] = tested on: SIV/HIV-1 virus SHIV89.6P; conditions: gel formulations applied rectally, male macaques; cited from earlier work
HIV-1 BaL [3] = conditions: recombinant CVN; cited from earlier work
SHIV89.6P = conditions: cited from earlier work
[4] = tested on: gp120s from a variety of strains of HIV-1 of diverse clades and tropisms; test: ELISA binding to gp120 of a variety of clades and tropisms; conditions: 50 nM, 100 ng gp120
Excerpt: Bars represent triplicate determination after the subtraction of non-specific binding to BSA. Error bars indicate one standard deviation.
We therefore tested the ability of the chimera to bind to the gp120s from a variety of strains of HIV-1 of diverse clades and tropisms.

YU2 gp120 / mAb 17b [5] = molecular target: T1, YU2 gp120 / mAb 17b (Human immunodeficiency virus type 1 group M subtype B, UniProt P35961); conditions: ELISA, 2 μg/ml 17b
YU2 gp120 / mAb 17b [6] = molecular target: T1, YU2 gp120 / mAb 17b; conditions: from literature; cited from earlier work
[7] = molecular target: gp120 of HIV-1 JRFL and HIV-1 89.6; conditions: cited from earlier work
HIV-1YU2 gp120 = HIV-1YU2 gp120 (Human immunodeficiency virus type 1 group M subtype B, UniProt P35961); conditions: at 300 nM, about 250 RUs gp120 immobilized
Experimental: Approximately 250 RUs of either YU2 gp120 or the non-specific control antibody 2B6R were immobilized to a CM5 dextran chip by amine coupling. […] Signals from the reference 2B6R flow cell were used to correct for non-specific interactions and bulk effects (FIGS. 4A, B).
All surface plasmon resonance studies were performed on a Biacore 3000 (Biacore Inc., Uppsala, Sweden). CM5 dextran chip was derivatized by amine coupling with 250 RUs of YU2 gp120 or 2B6R (anti-IL5 receptor βchain) IgG as a control surface. […] Surfaces were regenerated with multiple short pulses of 10 mM glycine HCl, pH 1.7.

YU2 gp120 / mAb F105 = molecular target: T2, YU2 gp120 / mAb F105 (Human immunodeficiency virus type 1 group M subtype B, UniProt P35961); conditions: from literature; cited from earlier work
T2 construct: made in house; host or cells: gp120: Drosophila S2 cells

YU2 gp120 / mAb 2G12 = YU2 gp120 / mAb 2G12 (Human immunodeficiency virus type 1 group M subtype B, UniProt P35961); conditions: ELISA, 50 μg/ml 2G12
Excerpt: Monomeric HIV-1YU2 gp120 was adsorbed onto ELISA plates overnight prior to blocking with 1% BSA.
This antibody recognizes the conformationally-flexible, CD4-unliganded form of gp120^53.

YU2 gp120 = YU2 gp120 (Human immunodeficiency virus type 1 group M subtype B, UniProt P35961); conditions: read-out: Equilibrium dissociation constant KD for binding to YU2; cited from earlier work

| Molecule | Inhibitory effect on viral replication alone (HIV-1 BaL [1]) | Protection against rectal challenge [2] | Cytotoxic effects in ectocervical explants (HIV-1 BaL [3]) | Infection of human ectocervical explants (HIV-1 BaL [3]) | Clinically adverse effects in in vivo assays (SHIV89.6P; macaques, gel) | CVN treated macaques not infected (SHIV89.6P; vaginal gel, SHIV89.6P challenge, controls 8 of 8 infected) | Binding to gp120s of diverse strains in ELISA [4] | Effect on interaction between 17b and gp120 (YU2 gp120 / mAb 17b [5]) | Effect on 17b-gp120 interaction (YU2 gp120 / mAb 17b [6]) | Affinity (KD) of interaction with gp120 [7] | Biosensor signal on immobilized YU2 gp120 (HIV-1YU2 gp120) [RU] | Effect on F105 binding to gp120 (YU2 gp120 / mAb F105) | Competition of gp120 binding to 2G12 antibody (YU2 gp120 / mAb 2G12) | Kd (YU2 gp120) [nM] |
| --- | --- | --- | --- | --- | --- | --- | --- | --- | --- | --- | --- | --- | --- | --- |
| RINNIPWSEAMM [12p1] | only small inhibitory effect |  |  |  |  |  |  |  |  |  |  |  |  |  |
| B1 |  | protected against challenge | no cytotoxic effects | blocked HIV-1 BaL infection | no clinically adverse effects | 15 of 18 | behaved equivalently with all strains tested | neither CVN nor L5-S12p1 had any effect | cannot inhibit this interaction | in the nM KD range | 95 | minimal effect | show the expected competition | 11 |
